In the DeepSol protein solubility set:

Assay: soluble on expression in E. coli; label from the status in PepcDB or PDB records

Sequence	soluble on expression in E. coli
MAHHHHHHMIADDMGLGKTVQALAVAHHYRNEWPVLIVCPLSLVENWTKELMRFCSIPIGRIAIFQNSKVRVTDVHSAVIVPYSSLKSLDTQSTTFQVVILDESHYIKTVDSKRTVAALKLCRVARRVLLLSGTPTLSRPIELYPQLQTIMHPSWTPSKSLFAARYCNAFVGRFGVDYLGHSHMSELHVLLQQFVIRRTKRELGNELPSKIRQLLYVYITPKEKKALEKSVSALRNSFRDGATLPTLGDVASTTNMAQGTGGNLTTCTAGGVTATRNMTAFDLKIATARAKIAAVQDYVKSTTEQMVESGQKVIIFAHHQCMMEAIREAVESVQPKQPLDYIYITGETPAAQREALTTHFRTSTNCHVAVLSMHSCGVGHNLTCATMVVFAELDWNPSTHLQCEDRVHRMGQSSACVIKYLLAEGTSDSVIWPMLQTKLNVTHAVLEDSQAGGEGWSAGADTRRILRSDVPLTPSSPEKKQLTLEGFLSHSGSRPSRPLTQSSDSNAEVLKTSDESPRADTSPDTPFQSPSAVAPAENVLFDIAKLRQQREARKVFHSMPVLGTAGAGSSPVAAVTVTPPPPQIQRQVTLHEVLTNHPANSPTPKNSPQQRTNFHVAVAAKSFNERSGAAHTSSCSSETTVCAPIVSHPVKTLFLTRPASANSSSAASSVKPHAGASAADLSVFSTASKEGSICLAPSPRSEEIRRYNARRTPFILGSTLEKRLRPDDMEDQVS	not soluble
KPYPYQQDMLESLQAEREQHNRHRNLLVAATGTGKTVVAALDYRSMCDALGRRPRLLFIAHRKEILQQALRTFREVLSDGNFGELLVDGVLPKEWTHVFASIQSLNTSRMEALGKDHFEFIIIDEFHHAQAISYRKVMDYFEPQELLGLTATPERG	not soluble
GMNDLKRLPYEPVKGLLPRPAVGTSERVITLPEPDRTSGMPLMGTLWLRKSTREFDQQPLPLKQLSELLWAAAGVNRSLGGGRTAPSPYGETVIDVYVALPAGLYRYDPVHHCLELKRAADLRSMTGYQDFVGMAPLDLVFVANHGRMQEMPPKLRETFSAAAAGAMAENAYLYCASAGLGAVVRGWLNRRQLAEHMSLNEDEEPILSQTIGRAASHVTTTQA	soluble
MGSDKIHHHHHHMKLVCAQSDLSTNLSLVNRAVPSRPTHPVLANVLLQADAETNQVSLTAFDLSLGIRTSFNADVWQSGAIALPAKLLVDITSRLPEGEITLDDESATDGTATGEGLIVSLTPKTGKYQLRAMGAEEFPELPLIENTTAIYLTATSLIEGLRGSLFATSGDETKQVLTGVHLTVKQDTLEFAATDGHRLAVVETTNERPLEDNDQQLEVTVPARALRELERMLAHNAASEEPIALYLDQGQVIFAWQNQRLTSRTLEGQYPAYRQLIPRQFERQVTIERRQFLSTLERIAVLADQKNNIVKLTIDSTAQELTLSCEAQEMGSGRESMNAEIAGEDIEIAFNVKYLMEGLKALPSPEIQMHINQNLTPVIFTPLGGLKMTYLAMPVQLRN	not soluble
MVKINITAETNGFVLLEHGEVFIKNNNDVSLKLIPNEQEVPLIINIEFANKGGRIASVDRNIVNDKLVFTCNNFQSEPGNWGGIIEPMLIAEMDDCNLYLSFLVWNIDTTNYNRLLNYSFWLKKK	not soluble
MSRLLALLALAPLLAGAAETTAPKPPSAFTVEAQRRVEAELPFADRADFERADRGLIRRPERLLIRNPDGSVAWQLGGYDFLLDGKPRDSINPSLQRQALLNLKYGLFEVAEGIYQVRGFDLANITFIRGDSGWIVVDTLTTPATARAAYELVSRELGERPIRTVIYSHAHADHFGGVRGLVEPQQVASGAVQIIAPAGFMEAAIKENVLAGNAMMRRATYQYGTQLPKGPQGQVDMAIGKGLARGPLSLLAPTRLIEGEGEDLVLDGVPFTFQNTPGTESPAEMNIWLPRQKALLMAENVVGTLHNLYTLRGAEVRDALGWSKYINQALHRFGRQAEVMFAVHNWPRWGNAEIVEVLEKQRDLYGYLHDQTLHLANQGVTIGQVHNRLRLPPSLDQEWYDRGYHGSVSHNARAVLNRYLGYYDGNPATLDPLSPEDSAGRYVEYMGGAERLLEQARASYARGEYRWVVEVVNRLVFAEPDNRAARELQADALEQLGYQAENAGWRNSYLSAAYELRHGVPRDQPTMKAGSADALAAMDTGLLFDYLGVRLDAGAAEGKALSINLRLPDIGENYLLELKNSHLNNLRGVQSEDAGQTVSIDRADLNRLLLKEVSAVRLVFEGKLKSSGNPLLLGQLFGMLGDFDFWFDIVTPAAKSEG	soluble
MRQVTIPLIQSKSMFCVIYRSSKRDQTYLYVEKKDDFSRVPEALMKGFGQPQLAMMLPLDGRKKLVNAELEKVKQALSEQGYYLQLPPPPEDLLKQHLSSVGQNTSPADR	not soluble
MGSSHHHHHHGKTIFVIVPTNEEQVAFLEALAKQDELNFDWQNPPTEPGQPVVILIPSDMVEWFLEMLKAKGIPFTVYVEEGGSENLYFQGGGGGGFYVRTPGKRLLEDKVGKDGLSHYSSEFSSRSSSAELKESRASKCSTTTKRSFAENAAGGTADSSKSHRSMPEVVSAQSQHSKTTGSHKRD	soluble
MDYMERPKLGLIVREPYASLIVDGRKVWEIRRRKTRHRGPLGIVSGGRLIGQADLVGVEGPFSVEELLAHQEKHLAEEAFLRAYAKDEPLYAWVLENAFRYEKPLHVPRRPGRVMFVDLSEVRW	soluble
MSLTSYSYRQSSATSSFGGLGGGSVRFGPGVAFRAPSIHGGSGGRGVSVSSARFVSSSSSGAYGGGYGGVLTASDGLLAGNEKLTMQNLNDRLASYLDKVRALEAANGELEVKIRDWYQKQGPGPSRDYSHYYTTIQDLRDKILGATIENSRIVLQIDNARLAADDFRTKFETEQALRMSVEADINGLRRVLDELTLARTDLEMQIEGLKEELAYLKKNHEEEISTLRGQVGGQVSVEVDSAPGTDLAKILSDMRSQYEVMAEQNRKDAEAWFTSRTEELNREVAGHTEQLQMSRSEVTDLRRTLQGLEIELQSQLSMKAALEDTLAETEARFGAQLAHIQALISGIEAQLGDVRADSERQNQEYQRLMDIKSRLEQEIATYRSLLEGQEDHYNNLSASKEGHHHHHH	not soluble
GPGSMSASNSCTVEEVRKEYAKLLDPQEPLDSRMRELYRLKEDCLKTVAGVTVILEAIDTTDSVLLQHELAYNAGQSGREEAVPELERILRTTSYDVVTRHEAAEALGAIGSPLALQVLETHSAPTTEPEASIRETCELALARIAMKETKGDAAVAPPSGCEFVSVDPSPAFSALYSSTDEPVPLTVEELEAVLLDTSGRTRLFRRYMAMFTLRNLATEAAVAALCRGLREDTISALFRHEVAFVLGQLERPSSQPALIAALKDEEEAPMVRHEAAEALGAIADPATLPVLESYATHHEPIVRDSCVVALEMHKYWAHFNSLAHQQQEA	soluble
MKNFEIVTVTPDHAEQLISMIHELAEFEKMKSSVVNTAEKLRKDIENKAVHGFIAFIGEEPAGMNLFYYAYSTWVGQYLHMEDLYIRPQFRRMGLARTLWKKLAELARDKGIVRLEWAVLDWNKNAIALYDTVDYVNLTKSEGWFTFRMDGAAINKFADE	not soluble
TSSTIFSGVAIYVNGYTDPSAEELRKLMMLHGGQYHVYYSRSKTTHIIATNLPNAKIKELKGEKVIRPEWIVESIKAGRLLSYIPYQLYT	soluble
MSLKFMSRFTFKQFHINQNSCAMKVGTDGILLGAWADVKHCKNILDMGCGTGLLALMLAQRTEENCQIQAVELDPIAAKQAQENINNSVWKNRIQLTQVDIQHFLQTTEQTFDLIVANPPYFEQGIACKNEERELARYTKQSHLNWLEWAATRLSENGRISFVLPYEAGKTLTKSTALFCIKQTNVITKIGKTPQRMLLTFAKQPEVLMQDQLVIYDADNQYTEAFIELTKDFYLKEGHHHHHH	soluble
MKTSKFTEAQIAFALKQAELGTKVEEVCRKLGISEATFYNWKKKYGGVGPSELRRMRQLEEENTKLKRLVADLSLDKAMLQDVLSKKLAAALEHHHHHH	not soluble
MSDTSYKLGITKTFPCNYLPDQQERLLIAVDERLHNSESYGWLMTQGFRRSGDQSYRPSCPNCNACQSIRVLTSDFLPSKSQKRSKKRNSHFIIKQSSQLKDSYYPLFENYINTLHQDGSMYPASFQQFESFLSCNLTQQLFIETWAPANEENGPKEDKLVCVAVTDVLSNGLSAVYTFYHPDYKANGLGVFSILTQLSLSQQMSLPYLYLGYQIDECQKMNYKDRYFPFERFIDGQWLINTKPSVNKAKIAKLEHHHHHH	not soluble
MSLRWEGTEEEAYKAEGTHFSGARRQTLVGRPAGQEAPAFETRYFEVEPGGYTTLERHEHTHVVMVVRGHAEVVLDDRVEPLTPLDCVYIAPHAWHQIHATGANEPLGFLCIVDSDRDREGHHHHHH	not soluble
MDKTNLGELINQGKSLLDESVEGFNVGEYHKGAKDGLTVEINKAEEVFNKEDATEEEINLAKESLEGAIARFNSLLIEESTGDFNGNGKIDIGDLAMVSKNIGSTTNTSLDLNKDGSIDEYEISFINHRILNLEHHHHHH	soluble
MGSDKIHHHHHHVHACGAETAPRCVTSYPFAQMPTAQTKKEKRPPASIESRIAECYDELSEIDQRLADVILSAPGQLAMQTATELASSAQVSKATATRFFQKLGYASYDDARAIARAAQVGGSPLYLQDRGRKTAGSKLDDVIQRHLQHEVENMANTYRSLDTQVLSEVVDAIAQARRVAIIGYRHSYTVATMIRRELIQVRSDVMLLPAPGDTIGEYLADLNAKDLAIVIGLRRRVPAVGLATAALAEAGVPVVYMSDVIAGKPARLARWVIRCHTDGLMLFDSKAGMTAVVNLICSLVAERVLDRSNSHLQRVEVLHDSLRELE	not soluble
MGSDKIHHHHHHMTCRRITFVPNFMIRDARVLRAGFVPREVEHRDAEVNHLSSVLEPITNGEPADTAIVTGPSGTGKTCISQFVTERLREEVLNVEATYVNCWRNYTRFRTLYQILDDFGETIDIHRQSTPHDELIDRLQQYDGPRTVIILDEVDQLEDPGIIYDLHSLPHFAVICIANKEEDLFSRVDDRLVSRLRSSEHVRMDKYHDEQLHDILAARVKGGLDQDVITTNQLDRIADAAAGDARLAIGILRTAASKADRESRERITDDILLNAAEDARAQIKQKNLDSLIPHQRLVYDVVREHGPLGPSEIYDHYKRKVDDPRTKRTIRTYLSKMTQYNVLEAEGTSRDREYSLVDSTAPSVTQ	not soluble
PKPLVILAHEIYGVNSHMKKMGRLIKMAGYDVLTPNLLGEDEVYTLKEEKTAYEQFTKHERLKTGETIIQPVIRQNAGRHIFVIGFSVGATIAWKCSSMPEVSGSVCYYGSRIRDSLHHMPACPVLLFFPNYEPSFDVALLIKKLREKQHTHLEIYQFDALHASP	not soluble
MAHHHHHHMSEDESNSVSCSLSLESDGYSDEEYDTNLNKLIENESLNWIFVGGKGGVGKTTTSCSIAVQLSKRRESVLLLSTDPAHNTSDAFNQKFTNQPTLINSFDNLYCMEIDTNYSENTAFKLNKKEMFDNILPELLHSFPGIDEALCFAELMQSIKNMKYSVIVFDTAPTGHTLRLLAFPDLLKKALGYLINIREKLKGTLNVLKNFTNNEMEFDSLYEKINHLNAMSSSIQANFQNPMKTTFVCVCIPEFLSVYETERLIQELTKKNISCYNIVVNQVVFPLDSPNVNLENCKNLLSQIKNEQIQSYFNDLISKTEELEDVYISRRKLQSKYLTQIKNLYSNDFHIVCMPQLKNEIRGLNNISSFSEMLLQSKDIPIYKDNL	not soluble
MAAVDSFQLLYREIARSCSGYVETLALVGACYMASKTVIFMRDCYSLIRLYFVPRLVRHRDLSQQYGQWAIICGASEAIAKAYAEELARHGICVILISKDLSSVSDTARLISNNYGVEAICIEADFNQGPSACKPIKDAISSKDIGFIVNSFDGTLEISQNFLELSESVLWGTIDRNIAATTLVTRLALPAMMERGRGAVVNISSGHCFHPIPRKAAFSASTAFLDNFSRSLQYEYGDQGVFVQSLLPFRVASQRPEGSAPPASWLVPSPQVYASHALSTLGISHRTTGYWPHSMQLGLVKMMPEWVWMLGSRVFTMAT	soluble
